Reference: article PMC7528686 (Molecules and Cells, 2020)

Molecular target: the molecule itself
Assay: SEC

B1: CafA (residues 75-287), β-class carbonic anhydrase of Aspergillus fumigatus (enzyme, UniProt A4UTP0 75-287, looked up)
chain: DSLSDKFSAALAKNKEWAAKCSQEHPELLPTLAVGQHPEILWIGCSDSRCPETTILGLLPGDVFTHRNIANVIHPADLSSGAVIEFAVRHLRVKHVVICGHTKCGGVAAALGNKGLGILDPWLIPLRQLREQHLAELQSLSRDEAVVRLAELNVKEGLKALTQKSVVLEAMQERGLQVHGLIYDVGSGFLRQLDAAEPEEALKARLTSFKTDA
  stoichiometry N: 4
